Assay results published in patent EP1892250A2.

Tests used:
[1] = biological target: αvβ3 integrin on human cells (human) (UniProt P06756); assay: cell-based or functional assay
[2] = biological target: α6β1 integrin on human cells (1064SK fibroblasts, endothelial cells) (human) (UniProt P23229); assay: cell-based or functional assay
Sequence of α6β1 integrin on human cells (1064SK fibroblasts, endothelial cells) (human) (P23229 24-1130, chain 1 of 2): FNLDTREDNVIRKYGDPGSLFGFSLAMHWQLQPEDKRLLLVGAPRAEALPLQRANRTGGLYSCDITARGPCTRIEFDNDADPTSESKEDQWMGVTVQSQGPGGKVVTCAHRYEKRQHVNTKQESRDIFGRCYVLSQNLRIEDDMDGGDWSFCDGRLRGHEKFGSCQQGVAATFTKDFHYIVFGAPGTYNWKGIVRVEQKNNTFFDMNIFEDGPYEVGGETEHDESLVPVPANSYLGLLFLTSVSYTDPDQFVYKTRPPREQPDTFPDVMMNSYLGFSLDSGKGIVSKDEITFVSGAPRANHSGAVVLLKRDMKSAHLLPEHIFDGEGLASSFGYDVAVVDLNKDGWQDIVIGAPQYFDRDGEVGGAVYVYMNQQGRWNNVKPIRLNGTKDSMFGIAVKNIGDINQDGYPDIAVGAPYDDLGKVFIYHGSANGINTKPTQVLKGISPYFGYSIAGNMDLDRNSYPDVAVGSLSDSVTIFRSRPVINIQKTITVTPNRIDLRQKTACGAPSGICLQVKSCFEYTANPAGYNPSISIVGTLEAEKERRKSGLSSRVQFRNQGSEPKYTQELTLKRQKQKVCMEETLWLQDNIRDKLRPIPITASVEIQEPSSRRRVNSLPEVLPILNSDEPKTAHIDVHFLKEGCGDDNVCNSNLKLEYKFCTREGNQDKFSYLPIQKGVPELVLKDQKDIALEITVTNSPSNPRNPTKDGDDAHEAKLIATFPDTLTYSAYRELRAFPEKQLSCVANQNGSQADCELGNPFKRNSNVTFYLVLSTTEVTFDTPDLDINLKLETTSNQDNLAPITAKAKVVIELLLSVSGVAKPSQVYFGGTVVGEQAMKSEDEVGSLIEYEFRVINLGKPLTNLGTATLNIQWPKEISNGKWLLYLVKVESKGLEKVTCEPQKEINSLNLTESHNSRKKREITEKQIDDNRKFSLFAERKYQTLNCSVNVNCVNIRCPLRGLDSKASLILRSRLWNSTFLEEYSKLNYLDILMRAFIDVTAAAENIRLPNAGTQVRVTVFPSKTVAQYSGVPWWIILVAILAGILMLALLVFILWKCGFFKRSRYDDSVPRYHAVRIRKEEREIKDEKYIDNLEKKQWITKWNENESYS
Sequence of α6β1 integrin on human cells (1064SK fibroblasts, endothelial cells) (human) (P05556 21-798, chain 2 of 2, further chain): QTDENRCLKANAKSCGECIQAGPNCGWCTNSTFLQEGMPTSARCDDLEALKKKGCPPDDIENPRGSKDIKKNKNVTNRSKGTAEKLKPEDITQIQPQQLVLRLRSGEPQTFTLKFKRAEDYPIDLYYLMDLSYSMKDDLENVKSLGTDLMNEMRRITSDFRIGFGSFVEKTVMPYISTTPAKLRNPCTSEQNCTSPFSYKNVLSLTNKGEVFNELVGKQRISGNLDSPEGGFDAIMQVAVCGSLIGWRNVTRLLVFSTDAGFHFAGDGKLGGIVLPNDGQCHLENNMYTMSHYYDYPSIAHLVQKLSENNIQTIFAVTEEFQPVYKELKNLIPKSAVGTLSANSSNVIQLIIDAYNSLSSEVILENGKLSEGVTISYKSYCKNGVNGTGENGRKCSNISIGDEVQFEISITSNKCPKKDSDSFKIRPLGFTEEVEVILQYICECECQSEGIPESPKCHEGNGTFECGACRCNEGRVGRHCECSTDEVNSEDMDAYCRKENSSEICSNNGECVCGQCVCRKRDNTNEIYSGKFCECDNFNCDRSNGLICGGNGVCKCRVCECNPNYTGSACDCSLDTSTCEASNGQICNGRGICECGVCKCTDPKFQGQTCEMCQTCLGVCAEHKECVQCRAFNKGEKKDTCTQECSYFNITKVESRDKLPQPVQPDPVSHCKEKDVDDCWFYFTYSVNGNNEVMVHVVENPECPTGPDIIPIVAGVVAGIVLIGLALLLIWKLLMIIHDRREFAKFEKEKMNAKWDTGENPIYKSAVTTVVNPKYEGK

Sequence of αvβ3 integrin on human cells (human) (P06756 31-1048, chain 1 of 2): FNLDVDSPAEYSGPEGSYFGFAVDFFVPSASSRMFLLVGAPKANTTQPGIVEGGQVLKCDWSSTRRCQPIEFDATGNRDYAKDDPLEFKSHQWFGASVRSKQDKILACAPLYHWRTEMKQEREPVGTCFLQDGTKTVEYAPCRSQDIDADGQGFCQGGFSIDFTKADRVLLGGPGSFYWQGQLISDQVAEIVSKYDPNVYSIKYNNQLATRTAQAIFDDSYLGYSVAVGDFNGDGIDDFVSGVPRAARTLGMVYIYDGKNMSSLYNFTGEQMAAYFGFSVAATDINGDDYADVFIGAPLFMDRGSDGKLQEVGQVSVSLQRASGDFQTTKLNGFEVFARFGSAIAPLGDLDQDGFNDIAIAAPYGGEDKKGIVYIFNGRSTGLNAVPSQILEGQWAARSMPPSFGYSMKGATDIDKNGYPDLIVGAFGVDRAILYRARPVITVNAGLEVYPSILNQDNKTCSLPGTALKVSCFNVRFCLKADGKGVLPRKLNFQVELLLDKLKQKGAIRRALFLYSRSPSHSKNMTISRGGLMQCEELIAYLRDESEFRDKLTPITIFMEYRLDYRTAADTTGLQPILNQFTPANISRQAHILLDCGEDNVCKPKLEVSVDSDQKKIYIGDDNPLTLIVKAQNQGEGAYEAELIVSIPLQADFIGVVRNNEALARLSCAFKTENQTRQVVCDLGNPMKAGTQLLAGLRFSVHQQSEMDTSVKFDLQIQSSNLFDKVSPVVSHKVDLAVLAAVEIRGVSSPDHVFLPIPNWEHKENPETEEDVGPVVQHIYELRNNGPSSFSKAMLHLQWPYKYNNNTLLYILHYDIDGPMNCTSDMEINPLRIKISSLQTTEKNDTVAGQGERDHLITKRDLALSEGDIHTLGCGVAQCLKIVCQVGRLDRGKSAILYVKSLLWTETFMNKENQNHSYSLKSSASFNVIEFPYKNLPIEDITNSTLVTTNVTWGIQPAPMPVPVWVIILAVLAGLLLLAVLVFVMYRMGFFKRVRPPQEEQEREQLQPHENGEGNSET
Sequence of αvβ3 integrin on human cells (human) (P05106 27-788, chain 2 of 2, further chain): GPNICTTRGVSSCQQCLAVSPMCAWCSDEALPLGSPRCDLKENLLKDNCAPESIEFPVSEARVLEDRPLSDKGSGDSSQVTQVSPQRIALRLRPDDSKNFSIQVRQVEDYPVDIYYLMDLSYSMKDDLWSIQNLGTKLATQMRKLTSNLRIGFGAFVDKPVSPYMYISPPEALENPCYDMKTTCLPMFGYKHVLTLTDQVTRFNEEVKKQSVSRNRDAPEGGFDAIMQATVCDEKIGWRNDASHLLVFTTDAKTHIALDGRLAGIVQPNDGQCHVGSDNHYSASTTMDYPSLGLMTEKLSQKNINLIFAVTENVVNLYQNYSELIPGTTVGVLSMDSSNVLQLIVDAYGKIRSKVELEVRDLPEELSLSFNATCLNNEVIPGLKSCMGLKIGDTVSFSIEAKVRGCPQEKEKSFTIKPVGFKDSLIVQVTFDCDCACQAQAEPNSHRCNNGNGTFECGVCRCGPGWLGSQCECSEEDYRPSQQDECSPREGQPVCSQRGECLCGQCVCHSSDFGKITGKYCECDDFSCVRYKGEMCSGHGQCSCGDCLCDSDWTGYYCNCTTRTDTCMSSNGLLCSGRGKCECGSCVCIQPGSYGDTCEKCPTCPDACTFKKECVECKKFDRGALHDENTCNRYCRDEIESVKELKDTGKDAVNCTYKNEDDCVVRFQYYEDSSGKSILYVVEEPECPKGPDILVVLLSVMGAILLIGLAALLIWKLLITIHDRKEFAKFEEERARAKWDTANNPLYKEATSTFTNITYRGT

Row | HUVE cell adhesion to wild-type Cyr61 (5 µg/ml), relative binding capacity, pre-incubation: Anti-αvβ3 antibody (LM609, 40 µg/ml) [1] [%] | HUVE cell adhesion to wild-type Cyr61 (5 µg/ml), relative binding capacity, pre-incubation: EDTA (2.5 mM) [1] [%] | HUVE cell adhesion to wild-type Cyr61 (5 µg/ml), relative binding capacity, pre-incubation: None [1] [%] | HUVE cell adhesion to wild-type Cyr61 (5 µg/ml), relative binding capacity, pre-incubation: RGD peptide (1 mM) [1] [%] | 1064SK fibroblast adhesion to Cyr61 (2 µg/ml), with anti-α6 antibody 20 µg/ml (A620) [2] [A620] | 1064SK fibroblast adhesion to Cyr61 (2 µg/ml), with anti-β1 antibody JB1A 50 µg/ml (A620) [2] [A620] | 1064SK fibroblast adhesion to Cyr61 (2 µg/ml), without anti-α6 antibody (A620) [2] [A620] | 1064SK fibroblast adhesion to Cyr61 (2 µg/ml), without anti-β1 antibody JB1A (A620) [2] [A620] | 1064SK fibroblast adhesion to Cyr61 (A620), antibody: None (control) [2] [A620] | 1064SK fibroblast adhesion to Cyr61 (A620), antibody: anti-α1 (40 µg/ml) [2] [A620] | 1064SK fibroblast adhesion to Cyr61 (A620), antibody: anti-α1 + anti-α2 + anti-α3 (40 µg/ml each) [2] [A620] | 1064SK fibroblast adhesion to Cyr61 (A620), antibody: anti-α2 (40 µg/ml) [2] [A620] | 1064SK fibroblast adhesion to Cyr61 (A620), antibody: anti-α3 (40 µg/ml) [2] [A620] | 1064SK fibroblast adhesion to Cyr61 (A620), antibody: anti-α4 (40 µg/ml) [2] [A620] | inhibition of 1064SK fibroblast adhesion to Cyr61 by anti-α6 antibody [2] [%] | inhibition of 1064SK fibroblast adhesion to Cyr61 by anti-β1 antibody JB1A [2] [%] | inhibition of 1064SK fibroblast adhesion to wild-type Cyr61 by anti-α6 antibody (20 µg/ml) [2] [%] | 1064SK fibroblast adhesion to laminin (5 µg/ml), with anti-α6 antibody 20 µg/ml (A620) [2] [A620] | 1064SK fibroblast adhesion to laminin (5 µg/ml), without anti-α6 antibody (A620) [2] [A620] | inhibition of 1064SK fibroblast adhesion to laminin by anti-α6 antibody [2] [%] | Substance
1 | 42 | 22 | 100 | 50 | 0.08 | 0.14 | 0.53 | 0.53 | 0.58 | 0.54 | 0.56 | 0.6 | 0.55 | 0.56 | > 80 | 75 | 78 | – | – | – | human Cyr61 (from UniProt O00622 25-381) (ligand)
2 | – | – | – | – | – | – | – | – | – | – | – | – | – | – | – | – | – | 0.48 | 0.62 | 22 | mouse laminin (ligand)
